Data on six molecules can be found in US20210269532A1 (SYMPHOGEN A S, published 2021).

Residue numbers refer to the chain shown, from its start.

Sequences and labels used below:
B1: 23203_3 (antibody, human IgG1, kappa, L234A L235A, V domains shown)
VH: QVQLQQWGAGLLKPSETLSLTCTVSGGSFSGYYWTWIRQPPGKGLEWIGEINHAGSTNYNPSLKSRVTISVDTSKNQFSLKLSSVTAADTAVYYCSSREYSSRWHFDYWGQGTLVTVSS
VL: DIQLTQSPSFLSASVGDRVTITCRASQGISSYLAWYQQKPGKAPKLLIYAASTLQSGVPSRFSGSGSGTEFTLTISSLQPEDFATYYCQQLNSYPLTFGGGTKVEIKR
notes: Fully human IgG1-LALA, kappa
B2: 23203_2 (antibody, human IgG1, kappa, L234A L235A, V domains shown)
VH: B1 VH with T23A, S25Y, A54S
VL: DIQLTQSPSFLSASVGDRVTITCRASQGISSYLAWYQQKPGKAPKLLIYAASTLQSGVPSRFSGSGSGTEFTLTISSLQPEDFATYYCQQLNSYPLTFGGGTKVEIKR
notes: Fully human IgG1-LALA, kappa
B3: 23203_4 (antibody, human IgG1, kappa, L234A L235A, V domains shown)
VH: B1 VH with T23A, S25Y
VL: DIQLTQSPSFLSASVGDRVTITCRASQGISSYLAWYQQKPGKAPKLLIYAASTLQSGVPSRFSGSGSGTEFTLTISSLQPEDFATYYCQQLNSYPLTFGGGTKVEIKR
notes: Fully human IgG1-LALA, kappa
B4: 23203_1 (antibody, human IgG1, kappa, L234A L235A, V domains shown)
VH: B1 VH with Q6E, W7S, A9P, L12V, T35S
VL: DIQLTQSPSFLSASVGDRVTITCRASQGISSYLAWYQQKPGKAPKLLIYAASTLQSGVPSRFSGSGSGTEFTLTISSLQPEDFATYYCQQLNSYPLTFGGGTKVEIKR
notes: Fully human IgG1-LALA, kappa
B5: 22883 (antibody, human IgG1, kappa, L234A L235A, V domains shown)
VH: EVQLVESGGGLVQPGGSLRLSCAASGFTFSSYAMSWVRQAPGKGLEWVSAISGGGDYTYYADSVKGRFTISRDNSKNTLYLQMNSLRAEDTAVYYCAKEEWELRGPFRYWGQGTLVTVSS
VL: DIQMTQSPSTLSASVGDRVTITCRASQSISSWLAWYQQKPGKAPKFLIYKASSLESGVPSRFSGSGSGTEFTLTISSLQPDDFATYYCQQYNGFSWTFGQGTKVEIKR
notes: Fully human IgG1-LALA, kappa
B6: 22995 (antibody, human IgG1, kappa, L234A L235A, V domains shown)
VH: EVQLVESGGSLVQPGGSLRLSCAASGFTFSSSAMSWVRQAPGKGLEWVSTISGSDSSTYDADSVKGRSTISRDNSKNTLYLQMNSLRADDTAVYYCAKKGAYCSGTICYDPFDYWGQGTLVTVSS
VL: DIVLTQSPVLAVSLGQRATISCRASQSVSISSINLMHWYQQKPGQQPKLLIYRASNLASGIPARFSGSGSGTDFTLTIDPVQADDIAAYYCQQSRESPLTFGGGTKVEIKR
notes: Fully human IgG1-LALA, kappa

In the first experiment the target is T1, His-tagged human AXL extracellular domain (recombinant) (human, UniProt P30530 26-451).
T1 construct: treated as one molecule; also called human AXL ECD; AXL-His ECD; not shown: His tag
T1 sequence: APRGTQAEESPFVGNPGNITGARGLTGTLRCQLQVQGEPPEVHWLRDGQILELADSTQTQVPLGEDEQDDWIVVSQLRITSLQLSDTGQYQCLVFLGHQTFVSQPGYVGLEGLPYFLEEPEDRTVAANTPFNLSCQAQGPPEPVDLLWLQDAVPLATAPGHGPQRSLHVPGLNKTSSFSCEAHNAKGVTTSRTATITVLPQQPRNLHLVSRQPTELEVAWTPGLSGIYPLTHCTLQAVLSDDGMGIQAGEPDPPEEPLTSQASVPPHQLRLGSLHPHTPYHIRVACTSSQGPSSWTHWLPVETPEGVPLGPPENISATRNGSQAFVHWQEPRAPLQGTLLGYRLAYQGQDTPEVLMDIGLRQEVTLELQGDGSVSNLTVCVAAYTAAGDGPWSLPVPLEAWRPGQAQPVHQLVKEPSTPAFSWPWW
The experiment in a line: SPR (IBIS MX96), antibody captured, monovalent His-tagged AXL ECD in solution, 1:1 fit. How it is done:
(§1) The kinetic binding analysis was performed by surface plasmon resonance (SPR), using a Continuous Flow Microspotter (CFM, Wasatch Microfluidics, Salt Lake City, US) combined with an IBIS MX96 SPR instrument (IBIS Technologies, The Netherlands).
(§2) His-tagged human and cynomolgus AXL ECD were expressed in Expi293F cells and purified by Ni-NTA chromatography. Binding kinetics were measured under monovalent antigen conditions by immobilizing anti-AXL antibodies and keeping the monovalent AXL antigen in solution. Antibodies were captured onto a G-a-hu-IgG Fc SensEye® (Ssens BV, The Netherlands) for 15 minutes using a Continuous Flow Microspotter (CFM, Wasatch Microfluidics, Salt Lake City, US). After spotting, the SensEye® was positioned in the IBIS MX96 biosensor and captured proteins were fixed to the surface using FixIT kit (Ssens BV, The Netherlands). Kinetic analysis was performed by applying kinetic titration series (Karlsson et al., Anal Biochem. 349(1):136-47 (2006)), with antigen injections at increasing concentrations from 0.14 nM to 100 nM. Antigen association and dissociation was performed for 15 minutes. After each antigen injection series, the surface was regenerated by 100 mM H₃PO₄, pH 3 regeneration buffer. The recorded binding responses were fitted to a simple Langmuir 1:1 binding model with Scrubber 2 software for calculation of the on-rate (kₒₙ or ka), off-rate (koff or kd) and affinity (KD) constants.
By Kd is commonly meant a measure of binding affinity in units of concentration. The term koff denotes the rate constant with which the complex falls apart. What is called kon is the second-order rate constant of association. In the case of B1, the dissociation constant (Kd) worked out at 15 nM, the koff was found to be 0.0016 s⁻¹ and the kon was 110000 M⁻¹ s⁻¹.
On to B2, for which the Kd is 11 nM, the dissociation rate constant (koff) came out at 0.0016 s⁻¹ and the association rate constant (kon) stood at 140000 M⁻¹ s⁻¹.
On the same counts, the results for B3 are 25 nM, 0.0023 s⁻¹ and 90000 M⁻¹ s⁻¹.
For B4, the Kd is 15 nM, the off-rate constant (koff) is 0.0021 s⁻¹ and the on-rate constant (kon) is 140000 M⁻¹ s⁻¹.
On the same counts, the results for B5 are 9.6 nM, 0.00031 s⁻¹ and 32000 M⁻¹ s⁻¹.
As for B6, the Kd came to 0.69 nM, the koff was determined as 0.00057 s⁻¹ and the association rate constant (kon) was 820000 M⁻¹ s⁻¹.

The target of a further experiment is T2, His-tagged cynomolgus AXL extracellular domain (recombinant) (cynomolgus).
T2 construct: extracellular domain; Expressed in Expi293F cells, purified by Ni-NTA; also called cynomolgus AXL ECD
The description is as above. On the procedure:
as §1, §2
Turning to B1, the equilibrium dissociation constant (Kd) was found to be 13 nM, the dissociation rate constant (koff) came out at 0.0018 s⁻¹ and the kon was determined as 140000 M⁻¹ s⁻¹.
As to B2, the equilibrium dissociation constant (Kd) came to 15 nM, the koff came to 0.0016 s⁻¹ and the kon came to 110000 M⁻¹ s⁻¹.
As to B3, the equilibrium dissociation constant (Kd) was determined as 15 nM, the koff stood at 0.0021 s⁻¹ and the kon is 150000 M⁻¹ s⁻¹.
As to B4, the equilibrium dissociation constant (Kd) was found to be 13 nM, the koff came out at 0.0024 s⁻¹ and the kon amounted to 180000 M⁻¹ s⁻¹.
As for B5, the equilibrium dissociation constant (Kd) came to 7.2 nM, the dissociation rate constant (koff) was determined as 0.0002 s⁻¹ and the association rate constant (kon) stood at 28000 M⁻¹ s⁻¹.
Taken in the same sequence, the figures for B6 were 80 nM, 0.0011 s⁻¹ and 14000 M⁻¹ s⁻¹.

The target of the next experiment is T3, human AXL extracellular domain transiently expressed on CHO-S cells (human, UniProt P30530 26-451).
T3 construct: also called human AXL ECD on CHO-S cells
T3 sequence: T1 sequence
The experiment can be described thus: flow cytometry, serial dilution on CHO-S cells transiently expressing human AXL ECD, AF647 anti-human IgG secondary, GeoMean (RL1-H). How it is done:
(§3) Six anti-human AXL antibodies and reference antibody analogues were evaluated by flow cytometry for in vitro binding to human or cynomolgus AXL extracellular domain transiently expressed on CHO-S cells. For comparison, reference antibody analogues were included in the evaluation. All antibodies were incubated in serial dilutions together with the transiently transfected CHO-S cells for 30 min at 4° C. Following two washing steps, the cells were incubated with AF647-conjugated secondary anti-human IgG (H+L) antibody for 30 min at 4° C. A final washing step was done prior to acquisition of the cells on an iQue Plus screener. Results were calculated by GrafPad Prism software.
(A flow cytometer gives signals particle by particle.)
One may read the EC50 (read off the curve) as the concentration needed to bring the measured effect to its halfway point. Read a high EC50 (read off the curve) as a less potent agent. In the case of B1, the “EC50 (read off the curve)” value is roughly 0.02 µg/mL.
B2: the concentration for a half-maximal effect (EC50 (read off the curve)) is roughly 0.02 µg/mL.
For B3, the 50% effective concentration (EC50 (read off the curve)) was roughly 0.02 µg/mL.
On the same count and under the same terms, with B4 the figure was roughly 0.02 µg/mL.
On the same count and under the same terms, with B5 the figure was roughly 0.07 µg/mL; with B6, roughly 0.007 µg/mL.

The target in the next experiment is T4, cynomolgus AXL extracellular domain transiently expressed on CHO-S cells (cynomolgus).
T4 construct: extracellular domain; also called cynomolgus AXL ECD on CHO-S cells
The experiment in a line: flow cytometry, serial dilution on CHO-S cells transiently expressing cynomolgus AXL ECD, AF647 anti-human IgG secondary, GeoMean (RL1-H). On the procedure: as §3
With B1, the 50% effective concentration (EC50 (read off the curve)) is roughly 0.02 µg/mL.
Same read-out and setting: in the case of B2 it was roughly 0.02 µg/mL.
Still for that read-out and setting: with B3 the figure was roughly 0.02 µg/mL; with B4, roughly 0.02 µg/mL.
Same read-out and setting: in the case of B5 it was roughly 0.05 µg/mL.
With B6, the half-maximal effective concentration (EC50 (read off the curve)) is roughly 0.4 µg/mL.
